# Measured values published in article PMC3842988 (Molecular Biology of the Cell, 2013).
# T1: FLAG-Htt103Q-GFP (Huntingtin with 103Q glutamine stretch, lacking the proline-rich region) (UniProt P42858 1-17)
# T1 chain: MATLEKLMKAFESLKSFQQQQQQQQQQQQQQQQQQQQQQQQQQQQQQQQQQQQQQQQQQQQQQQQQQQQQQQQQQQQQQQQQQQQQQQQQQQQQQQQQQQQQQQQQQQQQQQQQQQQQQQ
# Biological target: T1, FLAG-Htt103Q-GFP (Huntingtin with 103Q …)
# Assay: co-IP
row,Binder,"fold change of the co-precipitate, Sti1 elevated against endogenous Sti1"
1,Sis1 (type II Hsp40) (natural protein) MVKETKLYDLLGVSPSANEQELKKGYRKAALKYHPDKPTGDTEKFKEISEAFEILNDPQKREIYDQYGLEAARSGGPSFGPGGPGGAGGAGGFPGGAGGFSGGHAFSNEDAFNIFSQFFGGSSPFGGADDSGFSFSSYPSGGGAGMGGMPGGMGGMHGGMGGMPGGFRSASSSPTYPEEETVQVNLPVSLEDLFVGKKKSFKIGRKGPHGASEKTQIDIQLKPGWKAGTKITYKNQGDYNPQTGRRKTLQFVIQEKSHPNFKRDGDDLIYTLPLSFKESLLGFSKTIQTIDGRTLPLSRVQPVQPSQTSTYPGQGMPTPKNPSQRGNLIVKYKVDYPISLNDAQKRAIDENF,~4 fold
2,Ssa1 (Hsp70) (natural protein) not shown,> 2 fold
